The data set addresses T1, TaB3-2A1-GST (Triticum aestivum, UniProt A0A3B6AVE6 1-220).
T1 sequence: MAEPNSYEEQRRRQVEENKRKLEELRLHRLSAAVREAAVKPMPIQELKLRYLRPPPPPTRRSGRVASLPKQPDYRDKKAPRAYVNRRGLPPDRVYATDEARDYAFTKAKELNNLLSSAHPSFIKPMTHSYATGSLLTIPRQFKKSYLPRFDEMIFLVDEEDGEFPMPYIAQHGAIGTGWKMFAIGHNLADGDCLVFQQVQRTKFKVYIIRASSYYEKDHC
In words: EMSA. (In general: A gel shift assay detects complexes by their altered migration in electrophoresis.)

B1: CCRM1-1 probe (dsDNA)
DNA 1: CTTTTGTGTTGGCAAACTGCGCTTTTCCAACCGATTTTGTTCTTCTCGCGCTTTCTTCTTAGGCTAAACAAACCTCACCGTGCACGCAGCCATGGTCCTGAACCTTCA
DNA 2: TGAAGGTTCAGGACCATGGCTGCGTGCACGGTGAGGTTTGTTTAGCCTAAGAAGAAAGCGCGAGAAGAACAAAATCGGTTGGAAAAGCGCAGTTTGCCAACACAAAAG
B1: the binding result is “binds”.

For the origin of these results see paper PMC10502752.
